The record followed here is IntAct's records for PubMed 16319069.

First the molecules themselves.
B1: 5-hydroxytryptamine receptor 2C (Homo sapiens), P28335 (parent)
chain: MVNLRNAVHSFLVHLIGLLVWQSDISVSPVAAIVTDIFNTSDGGRFKFPDGVQNWPALSIVIIIIMTIGGNILVIMAVSMEKKLHNATNYFLMSLAIADMLVGLLVMPLSLLAILYDYVWPLPRYLCPVWISLDVLFSTASIMHLCAISLDRYVAIRNPIEHSRFNSRTKAIMKIAIVWAISIGVSVPIPVIGLRDEEKVFVNNTTCVLNDPNFVLIGSFVAFFIPLTIMVITYCLTIYVLRRQALMLLHGHTEEPPGLSLDFLKCCKRNTAEEENSANPNQDQNARRRKKKERRPRGTMQAINNERKASKVLGIVFFVFLIMWCPFFITNILSVLCEKSCNQKLMEKLLNVFVWIGYVCSGINPLVYTLFNKIYRRAFSNYLRCNYKVEKKPPVRQIPRVAATALSGRELNVNIYRHTNEPVIEKASDNEPGIEMQVENLELPVNPSSVVSERISSV

Variants of B1 are the subject of the assay. To be noted: with arrb2_mouse Arrb2, Q91YI4.
Chain of arrb2_mouse Arrb2, Q91YI4 (Q91YI4 whole entry): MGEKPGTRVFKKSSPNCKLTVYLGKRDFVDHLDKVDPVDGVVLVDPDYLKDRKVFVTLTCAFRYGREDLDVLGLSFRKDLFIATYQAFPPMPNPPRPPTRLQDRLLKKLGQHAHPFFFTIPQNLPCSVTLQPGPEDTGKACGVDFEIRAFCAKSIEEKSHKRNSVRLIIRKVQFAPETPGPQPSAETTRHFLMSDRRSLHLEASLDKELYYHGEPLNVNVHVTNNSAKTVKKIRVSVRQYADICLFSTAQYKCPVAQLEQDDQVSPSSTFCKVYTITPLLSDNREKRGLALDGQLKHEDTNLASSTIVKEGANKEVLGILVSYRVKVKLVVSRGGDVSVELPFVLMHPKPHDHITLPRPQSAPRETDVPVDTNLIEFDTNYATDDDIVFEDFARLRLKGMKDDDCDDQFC
Turning to P159A, the “effect of a mutation on the interaction” value is recorded as “decreasing interaction”.
